# Paper PMC3653949, “Dissection of Agonistic and Blocking Effects of CD200 Receptor Antibodies” (PLoS ONE, 2013)
# T1: CD200R(1)-rCD4d3+4 (extracellular domains of mouse CD200R allele 1 fused to rat CD4 domains 3 and 4) (mouse, UniProt Q9ES57 26-238, biotin at the biotinylation site)
# T1 construct: mouse CD200R, allele CD200R(1) of C57BL/6 mice, the two extracellular domains; also called mCD200R; CD200R(1) rCD4d3+d4; source: 293T cells, transfected (pEF-BOS), tissue culture supernatant concentrated and biotinylated
# T1 sequence (looked up): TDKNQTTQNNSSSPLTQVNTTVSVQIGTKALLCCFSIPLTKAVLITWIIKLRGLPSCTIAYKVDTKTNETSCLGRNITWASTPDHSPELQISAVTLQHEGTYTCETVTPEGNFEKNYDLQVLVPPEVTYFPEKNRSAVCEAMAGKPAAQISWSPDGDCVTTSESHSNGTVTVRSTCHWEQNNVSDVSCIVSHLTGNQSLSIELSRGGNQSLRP
# B1: mouse CD200-rCD4d3+4 (extracellular domains of mouse CD200 fused to rat CD4 domains 3 and 4) (ligand, UniProt O54901 31-232, looked up)
# chain: QVEVVTQDERKALHTTASLRCSLKTSQEPLIVTWQKKKAVSPENMVTYSKTHGVVIQPAYKDRINVTELGLWNSSITFWNTTLEDEGCYMCLFNTFGSQKVSGTACLTLYVQPIVHLHYNYFEDHLNITCSATARPAPAISWKGTGTGIENSTESHFHSNGTTSVTSILRVKDPKTQVGKEVICQVLYLGNVIDYKQSLDKG
# modifications: biotin at the biotinylation site (form put on streptavidin coated fluorescent beads)
# notes: mouse CD200, extracellular domains; also called soluble CD200; soluble purified CD200; source: 293T cells, transfected (pEF-BOS), tissue culture supernatant concentrated and biotinylated (on beads); purified and gel filtered (SPR)
# Target: T1, CD200R(1)-rCD4d3+4 (extracellular …)
# Experiment: SPR; biotinylated CD200R(1)-rCD4d3+4, CD200R(2)-rCD4d3+4 and rCD4d3+4 from tissue culture supernatants immobilized on streptavidin coupled CM5 chip (726, 704, 681 RU); purified, gel filtered CD200-rCD4d3+4 (0.75 µM) passed over; BIAcore 3000, 25°C
# Conditions: both partners purified
binder,measurement,value
B1,binding result,binds
